Assay results reported in paper PMC12110046.

What was measured:
eel LH/CGR-N306Q (eel) [1] = target: eel LH/CGR-N306Q (eel)
[2] = target: eel lutropin/chorionic gonadotropin receptor, wild type (eel)
eel LH/CGR-N312Q (eel) [3] = target: eel LH/CGR-N312Q (eel)
eel LH/CGR-N49Q (eel) [4] = target: eel LH/CGR-N49Q (eel)
eel LH/CGR-N306Q (eel) [5] = target: eel LH/CGR-N306Q (eel); remark: listed apart in the source
[6] = target: eel lutropin/chorionic gonadotropin receptor, wild type (eel); remark: listed apart in the source
eel LH/CGR-N312Q (eel) [7] = target: eel LH/CGR-N312Q (eel); remark: listed apart in the source
eel LH/CGR-N49Q (eel) [8] = target: eel LH/CGR-N49Q (eel); remark: listed apart in the source

EC50 of the cAMP response (HTRF), transfected CHO-K1 cells, rec-eel LH for 30 min (eel LH/CGR-N306Q (eel) [1]): 0.233 µg/mL | EC50 of the cAMP response (HTRF), transfected CHO-K1 cells, rec-eel LH for 30 min [2]: 0.19 µg/mL | EC50 of the cAMP response (HTRF), transfected CHO-K1 cells, rec-eel LH for 30 min (eel LH/CGR-N312Q (eel) [3]): 0.235 µg/mL | EC50 of the cAMP response (HTRF), transfected CHO-K1 cells, rec-eel LH for 30 min (eel LH/CGR-N49Q (eel) [4]): 0.215 µg/mL | pERK1/2 activity (HTRF), transfected HEK-293 cells, rec-eel LH 250 ng/mL for 0-30 min; peak at 5 min, fold over the basal response of LH/CGR-wt (eel LH/CGR-N306Q (eel) [5]): 3.1 fold | pERK1/2 activity (HTRF), transfected HEK-293 cells, rec-eel LH 250 ng/mL for 0-30 min; peak at 5 min, fold over the basal response [6]: 3.97 fold | pERK1/2 activity (HTRF), transfected HEK-293 cells, rec-eel LH 250 ng/mL for 0-30 min; peak at 5 min, fold over the basal response of LH/CGR-wt (eel LH/CGR-N312Q (eel) [7]): 3.7 fold | pERK1/2 activity (HTRF), transfected HEK-293 cells, rec-eel LH 250 ng/mL for 0-30 min; peak at 5 min, fold over the basal response of LH/CGR-wt (eel LH/CGR-N201Q (eel)): 2.6 fold | pERK1/2 activity (HTRF), transfected HEK-293 cells, rec-eel LH 250 ng/mL for 0-30 min; peak at 5 min, fold over the basal response of LH/CGR-wt (eel LH/CGR-N49Q (eel) [8]): 3.3 fold
Substance: recombinant eel LH (ligand)
